Source: the supplement of paper PMC9170038

Tested on: MS2 coat protein
Assay: apparent KD of MS2 coat protein; designed switch direction (-1 OFF switch, 1 ON switch): -1; higher = weaker reporter binding
Method in brief: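 Stalled E. coli RNA polymerase transcribed designed RNA switches on Illumina chips, which were then titrated with SNAP-549-labelled MS2 coat protein, doubling from 0.7 or 1.5 nM to 3 µM. Steps lasted from 0.8–1.5 h at the lowest concentration to 10–20 min at the highest. The apparent KD is each design's median over clusters of curve-fitted normalised fluorescence.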

[1] = input ligand: microRNA oligo, concentration not stated
[2] = Eterna round: R95, input ligand: microRNA oligo, concentration not stated
[3] = Eterna round: R95, input ligand: FMN 200 uM
[4] = Eterna round: R95, input ligand: none

Row | Sequence | apparent KD of MS2 coat protein (input ligand: FMN 200 uM) [nM] | apparent KD of MS2 coat protein [1] [nM] | apparent KD of MS2 coat protein (input ligand: none) [nM] | apparent KD of MS2 coat protein [2] [nM] | apparent KD of MS2 coat protein [3] [nM] | apparent KD of MS2 coat protein [4] [nM]
1 | CACCGUUAGUGAGGAUAUAUUACAUGAGGAUCACCCAUGUAAUAAAUGAGAAUUUCGGAUGUAUGAUAGAAGGCACAAAUCGGC [Ostricism 52 - Jieux - Exclusion NG 2] (Eterna round: R96, puzzle: Exclusion NG 2) | 11.2 | 11.2 | 13.1 | – | – | –
2 | CUUUUGUGAGGAUAUCAGUAGUAAAAUAAUAAUAUUACUACUGAGAAGGCACAUGAGGAUCACCCAUGUUCCUC [Fiskers Ex 4 Super stable 44 mod 1] (puzzle: Exclusion 4) | – | – | – | 39 | – | –
3 | GGUGGGCUAGGAUAUGCUUUGGGCAAGCAUUCCUUCGAUAAACUUGAGGAUCACCCAAGUAGAAGGAGCUUGCC [salish99_ex2_r4_026] (Eterna round: R97, puzzle: Exclusion 2) | 11.5 | – | 10.6 | – | – | –
4 | AAAGAGUGAGGAUAUACAUGAGGAUCACCCAUGUACGUAAUACAAUACGGGUGACGACGUAGAAGGCAUUGCUG [Eternabot (Original) Solution 28] (Eterna round: R97, puzzle: Exclusion 3) | 198 | – | 781 | – | – | –
5 | GAUAAGGUAGGAUAUACGAAGAAAGAGGGUAGUAAUAAUACACAUGAGGAUCACCCAUGUAGAAGGACCAAUAG [Mat - Exclusion 2 - Mod of my Tesla design - D43] (puzzle: Exclusion 2) | – | – | – | 26 | 39.1 | 26.4
6 | GCUGGUCGAGGAUAUACAUGAGGAUCACCCAUGUGGUCACGUGACGAUAGUCACGAAUGUAGAAGGUGACCAGC [E3/3-B1] (Eterna round: R97, puzzle: Exclusion 3) | 107 | – | 1760 | – | – | –
7 | CAUGAUUGGCGAGGAUAUUGAUCUAGUUGGCGACGAGAAGGCGCCUGUCACAUGAGGAUCACCCAUGUGAAUCUGGUGGAUGAG [Ex NG1 #88] (Eterna round: R96, puzzle: Exclusion NG 1) | 23 | 18.4 | 23.5 | – | – | –
8 | AGCUGUGGCCGAGGAUAUCUGAACCUUCAAACCGAAAUAUAAUCGGACAUGAGGAUCACCCAUGUAGAGAAGGCGGUCUCAGCA [Eli eng2 - 060] (Eterna round: R96, puzzle: Exclusion NG 2) | – | 9.95 | – | – | – | –
9 | AGGUGGAAGCAGGAUAUGCUAGAAGUGUAGAAUGCAGAAGGGCUAACAUGAGGAUCACCCAUGUAAGAGGUGUA [JR_E6_Sub051] (puzzle: Exclusion 6) | – | – | – | 200 | 383 | 236
10 | AUAAAUCAUGUAGGAUAUGCGUAGCGAAGCUAUGCAGAAGGACAUGAGGAUCACCCAUGUCUUUCCGUCUGCGAACAGACGGAA [Mat - Exclusion NG 1 - Mod of JL - D43] (Eterna round: R96, puzzle: Exclusion NG 1) | 199 | 20 | 31.6 | – | – | –
11 | UAUUAGCAAGUAAGGUCCCACAUGAGGAUCACCCAUGUGCUCGUCACCUCAGGUACGGAGCGGAAACUCCCGAUAUG [Sensor-V1 #91] (Eterna round: R97, puzzle: Sensor, turn-off variant 1) | 81.4 | – | 83.1 | – | – | –
12 | UUCGUGCAGCUUUGCUGUACGCGUACAUGAGGAUCACCCAUGUAGGAUAUGGUAGGCAAAGCUUACUAGAAGGAUAUGGUGAGC [Mat - Exclusion NG 3 - Mod of JL - D79] (Eterna round: R96, puzzle: Exclusion NG 3) | 30.3 | 15.5 | 21.4 | – | – | –
13 | GGUCGGCGAGGAUAUACAUGAGGAUCACCCAUGUGAUAGAGUGCACGAAAACGUGUACGUAGAAGGCGCUGACG [Mat - Exclusion 3 - Mod of JL D96] (puzzle: Exclusion 3) | – | – | – | 11 | 29.5 | 9.24
14 | GUCAGCUCGUGAGGAUAUGAACAUGAGGAUCACCCAUGUAAGAUCAAGCUGCUUCGGCAGCAAGUUCAGAAGGCACGAGCUGAC [ENG2/10-A1] (Eterna round: R96, puzzle: Exclusion NG 2) | 221 | 85.8 | 134 | – | – | –
15 | GCCUCGUCAGGAUAUUGGGAAGGCUGUUUUAUGAUUGCCCACAAGAAGGGACAUGAGGAUCACCCAUGUACAUU [Eternabot (L1) Solution 51] (Eterna round: R97, puzzle: Exclusion 4) | 63.3 | – | 32.5 | – | – | –
16 | ACAUCACAGCUAGGAUAUAGAUGACAUGAGGAUCACCCAUGUUAUCCCAUGUUGACGAAAACCGACUAGAAGGAGCUACAGAUG [Ex NG2 #6] (Eterna round: R96, puzzle: Exclusion NG 2) | 101 | 40.2 | 63.7 | – | – | –
17 | GUGAGCAGACGGAGAUCCAACAUGAGGAUCACCCAUGUCUCACUAGCUUUUUGCUCGUCUUAUCCUCCUCUGUUCAC [Elimod 23 - Jieux - Sensor, turn-off variant 1] (Eterna round: R97, puzzle: Sensor, turn-off variant 1) | 16 | – | 16.2 | – | – | –

Row | Sequence | apparent KD of MS2 coat protein (input ligand: FMN 200 uM) [nM] | apparent KD of MS2 coat protein [1] [nM] | apparent KD of MS2 coat protein (input ligand: none) [nM] | apparent KD of MS2 coat protein [2] [nM] | apparent KD of MS2 coat protein [3] [nM] | apparent KD of MS2 coat protein [4] [nM]
18 | GGCACACAUGAGGAUCACCCAUGUGAGGAUAUGGUGCGAUCGUCGAUAGACGAUAGCACUAGAAGGCACAUGCC [Mat - Exclusion 1 - Eli Mod - D6] (Eterna round: R97, puzzle: Exclusion 1) | 25.5 | – | 17.8 | – | – | –
19 | CCUCUACAUGAGGAUCACCCAUGUGAGGAUAUAAGAUUGCGAAUUCCGCACUACGGUCUUAGAAGGCGCGUGGA [Riarve] (Eterna round: R96, puzzle: Exclusion 1) | 31.3 | 14.8 | 20.3 | – | – | –
20 | AUAAUGUAAGGAUAUCAGUCGACUAGCUUCGGCUAGUCGACUGAGAAGGUACAUGAGGAUCACCCAUGUGGUUC [E4/11-A1] (Eterna round: R97, puzzle: Exclusion 4) | 118 | – | 985 | – | – | –
21 | CAAUAAAAGCGAGGAUAUCCGUAUAAAGAUACAGGAGAAGGUGCGGGUACUCCUCACAUGAGGAUCACCCAUGUAAGAAAUAAA [Erxeraso] (Eterna round: R96, puzzle: Exclusion NG 1) | 67.4 | 33.7 | 57.1 | – | – | –
22 | AAUAGCAAGCAAGAUCCUAACAUGAGGAUCACCCAUGUGCUCGUCUUGUAAAGUACUAUCACGAAAGUGAUAGUACA [Sensor 3, v1 - 49] (puzzle: Sensor v3, turn-off variant 1) | – | – | – | 211 | 29.7 | 31.9
23 | AAAAUAAAAGUCAGGAUAUUCCUACAACGACUAAGGAAGAAGGGACAUGAGGAUCACCCAUGUGGUCUUCCGAA [Onesti] (puzzle: Brourd's mod of Exclusion 4) | – | – | – | 17.8 | 42.5 | 15.1
24 | CCACGACAUGAGGAUCACCCAUGUGAGGAUAUGACCUGAAAAGCGUGAGCAGUUUGUAUCAGAAGGCGCGUAGG [salish99_ex1_r4_067] (Eterna round: R97, puzzle: Exclusion 1) | 35.9 | – | 44.2 | – | – | –
25 | GUUAGUUAAGGAUAUACAGGGAGCUGCGGCGUCUCGCCGCAACAUGAGGAUCACCCAUGUAGAAGGUGACCUUU [JL ViennaUCT Enbibi mod 7] (puzzle: Exclusion 2) | – | – | – | 435 | – | –
26 | AAGAAACAUGAGGAUCACCCAUGUGAGGAUAUGUAAAAUAAAAUAAAAUAAAGAAUAAACAGAAGGCACAAAGG [Mat - Mod of Hog D24] (puzzle: Exclusion 1) | – | – | – | 64.5 | 77.9 | 49.7
27 | UUAUAGUAUGUAGGAUAUCGGUCAGUUUCUGAUCGAGAAGGACAUGAGGAUCACCCAUGUAAGGCUACCGGUUUCUGGUGGCCG [JL ENG1 3.53] (Eterna round: R96, puzzle: Exclusion NG 1) | 122 | 16.5 | 26.1 | – | – | –
28 | CAUUACUGCAAGCUAUGGGACAUGAGGAUCACCCAUGUUCGUCUUAUUGAUCUAGGUACGCUGACGUACCUAGAUCU [JL-sv1-2.21 Brourd mod] (puzzle: Sensor v3, turn-off variant 1) | – | – | – | 21.4 | 16.3 | 15
29 | AAACCACAUGAGGAUCACCCAUGUGAGGAUAUGAUACUAUGUACUUCGGUACAUAGUAUCAGAAGGCAUAUGAA [Ex1-3: 48] (puzzle: Exclusion 1) | – | – | – | 24.4 | – | –
30 | AAGAAGAUAGGAUAUACGAGGAGAGGAGAGAAGAGGUGAGGACAUGAGGAUCACCCAUGUAGAAGGAUCAGGAA [JR_Exclu2_Sub063] (Eterna round: R96, puzzle: Exclusion 2) | 169 | 91 | 109 | – | – | –
31 | GCAUGCUAUGUCAGGAUAUACCUGUGGAUACAUAGGUAGAAGGGACAUGAGGAUCACCCAUGUCCUAAUCAUGC [Fiskers BMX 4 - 24] (Eterna round: R96, puzzle: Brourd's mod of Exclusion 4) | 11.6 | 10 | 13.4 | – | – | –
32 | GCUGGUAUAGGAUAUACGUAAGACGUGGUCCACAGUUAAUUACAUGAGGAUCACCCAUGUAGAAGGAUGGAAGC [Eternabot (L2) Solution 95] (Eterna round: R97, puzzle: Exclusion 2) | 298 | – | 65.8 | – | – | –
33 | CGUAAGCUAGGAUAUGCUUUGGGAAAGCAUUCCUUCGAUAAACUUGAGGAUCACCCAAGUAGAAGGAGCUUACA [salish99_ex2_r4_012] (Eterna round: R97, puzzle: Exclusion 2) | 18.2 | – | 12.3 | – | – | –
